Columns and labels:
Experiment in all cases: EMSA
[1] = test system: Mouse IgG2a (Mus musculus); settings: T = 5-ethynyldeoxyuridine clicked with sulfo-HSAB (NHS ester), covalent binding fraction
[2] = test system: Mouse IgG1 monoclonal antibody (including anti-streptavidin) (Mus musculus); settings: T = 5-ethynyldeoxyuridine clicked with sulfo-HSAB (NHS ester); for EC50: half-maximal covalent binding (estimate), Kd not determinable; for binding signal (% bound fraction): maximum covalent binding fraction
[3] = test system: Mouse IgG2b (Mus musculus); settings: T = 5-ethynyldeoxyuridine clicked with sulfo-HSAB (NHS ester), covalent binding fraction
[4] = core of consensus SEQ:22, flanks not given
[5] = core of consensus SEQ:23, flanks not given

Sequence	binding signal (% bound fraction) [1, 4]	EC50 ([2]; core of consensus SEQ:22, flanks not given, Cu(II) dependent)	binding signal (% bound fraction) [2, 4]	binding signal (% bound fraction) [3, 4]	binding signal (% bound fraction) [1, 5]	EC50 [2, 5]	binding signal (% bound fraction) [2, 5]	binding signal (% bound fraction) [3, 5]
AGCGCGGAACCGTGCCTGGC [Fc clone 1]	40	< 10 nM	40	10				
TAACGCARTAAGCGAG [Fc clone 2]					20	< 10 nM	20	2

Reference: patent US20210395742
